According to PMC6590870:
“And” between values parts separate entries of the source, which are not always exact repeats. Equal values may be shown once.

Target: Strep-HP1542 (bactofilin HP1542 of H. pylori reference strain 26695, N-terminal Strep-tagged version) (Helicobacter pylori strain 26695)
Experiment: cross-linking; glutaraldehyde dilutions 10% to 0.01% added to strep-tagged protein, 10 min at 23°C; SDS-PAGE and immunoblotting

**Q.** For “Strep-HP1542 (bactofilin HP1542 of H. pylori reference strain 26695, N-terminal Strep-tagged version) (natural protein)”, which stoichiometry N is on record?
**A.** 2 and 3
